From patent publication EP0901379B1

Molecular target: human MIP-1α (human) (UniProt P10147)
Experiment: 125I-MIP-1α bound to cells with 200X molar excess M-T1, Exp. 1

Chain of UniProt P10147 (P10147 24-92 limits assumed): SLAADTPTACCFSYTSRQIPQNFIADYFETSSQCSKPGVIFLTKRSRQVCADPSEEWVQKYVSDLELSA

Q: Which Surface Bound MIP-1α does the source give for myxoma T1 protein (M-T1) here?
A: The Surface Bound MIP-1α was 978 cpm.
